Read-outs that look alike come from different tables or passages of the source.
B1: RAI14 (protein, UniProt Q9P0K7 1-980, looked up)
Ankycorbin: MKSLKAKFRKSDTNEWNKNDDRLLQAVENGDAEKVASLLGKKGASATKHDSEGKTAFHLAAAKGHVECLRVMITHGVDVTAQDTTGHSALHLAAKNSHHECIRKLLQSKCPAESVDSSGKTALHYAAAQGCLQAVQILCEHKSPINLKDLDGNIPLLLAVQNGHSEICHFLLDHGADVNSRNKSGRTALMLACEIGSSNAVEALIKKGADLNLVDSLGYNALHYSKLSENAGIQSLLLSKISQDADLKTPTKPKQHDQVSKISSERSGTPKKRKAPPPPISPTQLSDVSSPRSITSTPLSGKESVFFAEPPFKAEISSIRENKDRLSDSTTGADSLLDISSEADQQDLLSLLQAKVASLTLHNKELQDKLQAKSPKEAEADLSFDSYHSTQTDLGPSLGKPGETSPPDSKSSPSVLIHSLGKSTTDNDVRIQQLQEILQDLQKRLESSEAERKQLQVELQSRRAELVCLNNTEISENSSDLSQKLKETQSKYEEAMKEVLSVQKQMKLGLVSPESMDNYSHFHELRVTEEEINVLKQDLQNALEESERNKEKVRELEEKLVEREKGTVIKPPVEEYEEMKSSYCSVIENMNKEKAFLFEKYQEAQEEIMKLKDTLKSQMTQEASDEAEDMKEAMNRMIDELNKQVSELSQLYKEAQAELEDYRKRKSLEDVTAEYIHKAEHEKLMQLTNVSRAKAEDALSEMKSQYSKVLNELTQLKQLVDAQKENSVSITEHLQVITTLRTAAKEMEEKISNLKEHLASKEVEVAKLEKQLLEEKAAMTDAMVPRSSYEKLQSSLESEVSVLASKLKESVKEKEKVHSEVVQIRSEVSQVKREKENIQTLLKSKEQEVNELLQKFQQAQEELAEMKRYAESSSKLEEDKDKKINEMSKEVTKLKEALNSLSQLSYSTSSSKRQSQQLEALQQQVKQLQNQLAECKKQHQEVISVYRMHLLYAVQGQMDEDVQKVLKQILTMCKNQSQKK
B2: TXNDC11 (protein, UniProt Q6PKC3 1-985, looked up)
Thioredoxin domain-containing …: MSECGGRGGGSSSSEDAEDEGGGGGGPAGSDCLSSSPTLATASSAGRLRRGLRGAFLMARQRPELLCGAVALGCALLLALKFTCSRAKDVIIPAKPPVSFFSLRSPVLDLFQGQLDYAEYVRRDSEVVLLFFYAPWCGQSIAARAEIEQAASRLSDQVLFVAINCWWNQGKCRKQKHFFYFPVIYLYHRSFGPIEYKGPMSAVYIEKFVRRVMKPLLYIPSQSELLDFLSNYEPGVLGYFEFSGSPQPPGYLTFFTSALHSLKKALESTSSPRALVSFTGEWHLETKIYVLDYLGTVRFGVITNKHLAKLVSLVHSGSVYLHRHFNTSLVFPREVLNYTAENICKWALENQETLFRWLRPHGGKSLLLNNELKKGPALFLFIPFNPLAESHPLIDEITEVALEYNNCHGDQVVERLLQHLRRVDAPVLESLALEVPAQLPDPPTITASPCCNTVVLPQWHSFSRTHNVCELCVNQTSGGMKPSSVSVPQCSFFEMAAALDSFYLKEQTFYHVASDSIECSNFLTSYSPFSYYTACCRTISRGVSGFIDSEQGVFEAPTVAFSSLEKKCEVDAPSSVPHIEENRYLFPEVDMTSTNFTGLSCRTNKTLNIYLLDSNLFWLYAERLGAPSSTQVKEFAAIVDVKEESHYILDPKQALMKLTLESFIQNFSVLYSPLKRHLIGSGSAQFPSQHLITEVTTDTFWEVVLQKQDVLLLYYAPWCGFCPSLNHIFIQLARNLPMDTFTVARIDVSQNDLPWEFMVDRLPTVLFFPCNRKDLSVKYPEDVPITLPNLLRFILHHSDPASSPQNVANSPTKECLQSEAVLQRGHISHLEREIQKLRAEISSLQRAQVQVESQLSSARRDEHRLRQQQRALEEQHSLLHAHSEQLQALYEQKTRELQELARKLQELADASENLLTENTWLKILVATMERKLEGRDGAESLAAQREVHPKQPEPSATPQLPGSSPPPANVSATLVSERNKENRTD

What was measured:
[1] = biological target: T1, HCV ORFs (Gal4-DB fusions) (Hepatitis C virus genotype 1b, UniProt Q9WMX2); type: binding, HCV genotype 1b, isolate con1; conditions: human protein as prey
T1 construct: expressed in transfected cells; host or cells: Saccharomyces cerevisiae MAV203 (IMAP1) / AH109 (IMAP2)

[2] = system: HCV ORFs (Gal4-DB fusions); type: binding, HCV genotype 1b, isolate con1; conditions: human protein listed by gene symbol; the value names the HCV protein it interacts with
[3] = biological target: T2, HCV proteins (Hepatitis C virus genotype 1b, UniProt Q9WMX2); test: Validation by Y2H pairwise matrices; type: binding; conditions: validation of interaction with HCV protein NS3;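 note: yeast two-hybrid pairwise tests of interactions first found in Y2H screens of HCV bait proteins against human cDNA libraries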
T2 construct: expressed in transfected cells

[4] = biological target: T3, GST-tagged viral proteins (Hepatitis C virus genotype 1b, UniProt Q9WMX2); test: Validation by co-affinity purification (CoAP); type: binding, HCV genotype 1b, isolate con1; parameters: key: +: IMAP validation; −: not validated; NA: non assayable due to default of protein expression or to cellular protein directly interacting with GST
T3 construct: expressed in transfected cells; host or cells: HEK-293T
In short: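 HEK-293T cells were co-transfected with N-terminal GST-tagged HCV bait and 3xFLAG-tagged human prey ORFs, with GST alone as control. Two days later, lysates (0.5% NP-40, pH 8.0) were pulled down on glutathione beads. Preys were detected by anti-FLAG immunoblot after SDS-PAGE.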
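Throughout, for IMAP Y2H IMAP1 (number of IST): yeast two-hybrid screens using HCV genotype 1b proteins fused to Gal4-DB as baits against prey cDNA libraries from human spleen and foetal brain, IMAP1 via transformation and IMAP2 via mating.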
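Throughout, for IMAP Y2H IMAP2 (number of IST): yeast two-hybrid screens using HCV genotype 1b proteins fused to Gal4-DB as baits against prey cDNA libraries from human spleen and foetal brain, IMAP1 via transformation and IMAP2 via mating.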
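Throughout, for Interaction with viral protein: yeast two-hybrid screens using HCV genotype 1b proteins fused to Gal4-DB as baits against prey cDNA libraries from human spleen and foetal brain, IMAP1 via transformation and IMAP2 via mating.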

T2 sequence (Q9WMX2 1027-1657): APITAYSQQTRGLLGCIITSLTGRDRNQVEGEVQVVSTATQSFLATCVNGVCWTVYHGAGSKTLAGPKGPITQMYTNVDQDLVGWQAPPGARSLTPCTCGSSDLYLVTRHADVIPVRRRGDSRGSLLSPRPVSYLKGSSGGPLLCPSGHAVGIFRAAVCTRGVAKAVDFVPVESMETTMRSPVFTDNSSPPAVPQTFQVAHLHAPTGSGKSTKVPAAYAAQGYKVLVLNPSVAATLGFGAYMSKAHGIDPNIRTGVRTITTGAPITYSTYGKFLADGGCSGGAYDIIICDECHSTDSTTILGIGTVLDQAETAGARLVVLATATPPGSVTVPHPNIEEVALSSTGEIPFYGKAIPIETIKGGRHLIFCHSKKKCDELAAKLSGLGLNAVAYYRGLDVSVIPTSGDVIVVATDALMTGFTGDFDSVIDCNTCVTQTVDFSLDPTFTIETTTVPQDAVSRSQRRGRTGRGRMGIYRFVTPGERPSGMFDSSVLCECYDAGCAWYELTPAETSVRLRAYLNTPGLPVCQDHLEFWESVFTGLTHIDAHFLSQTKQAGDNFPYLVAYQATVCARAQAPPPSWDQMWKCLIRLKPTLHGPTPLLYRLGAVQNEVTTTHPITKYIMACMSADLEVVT

Molecule	IMAP Y2H IMAP1 (number of IST) ([1]; HCV protein NS3 as bait)	IMAP Y2H IMAP2 (number of IST) ([1]; HCV protein NS3 as bait)	Interaction with viral protein [2]	Y2H matrices [3]	CoAP ([4]; validation of interaction with HCV protein NS3)	IMAP Y2H IMAP2 (number of IST) ([1]; HCV protein NS5A as bait)	CoAP ([4]; interaction with HCV protein NS5A)
B1	1	2	NS3	+	−		
B2	2		NS3	+		1	+

From patent US20110091994A1, “Methods for Screening Compounds for Treating and/or Preventing an Hepatitis C Virus Infection” (priority 2008, published 2011)
